Among the data in PMC3074150 are stoichiometry N values, retold here.

Test [1] has as its target δ2K242A (Streptococcus pyogenes plasmid pSM19035).
The target in test [2] is δ2K248S (Streptococcus pyogenes plasmid pSM19035).
In test [3] the target is δ2K259A/K260A (Streptococcus pyogenes plasmid pSM19035).

Usually stoichiometry N stands for the number of molecules, sites or subunits per partner or assembly. The substance δ2K242A (enzyme) registered a stoichiometry N in test [1] of 2.
δ2K248S (enzyme) yielded a stoichiometry N in test [2] of 2.
δ2K259A/K260A (enzyme) showed a stoichiometry N in test [3] of 2.
